We go through 1 molecule from US20200048328A1 (Bristol-Myers Squibb, published 2020).

In one experiment the target is T1, domain I of HSA (human, UniProt P02768 25-221, limits assumed).
T1 construct: domain: I; also called HSA domain I
Description: SPR on HSA domains.

Another experiment addresses T2, domain III of HSA (human, UniProt P02768 405-609, limits assumed).
T2 construct: domain: III; also called HuSA domainIII
Description: SPR on HSA domains.

Experiment [1] concerns the target T3, rhesus serum albumin (rhesus, UniProt Q28522 17-600).
T3 construct: also called RhSA; Rh-SA
As to the kind of experiment: SPR, albumin immobilized, HBSP pH 7.4. In general terms: In SPR one partner is held on a chip, and binding of the other changes the refractive index at the surface.

The target in another experiment is T4, human PCSK9 (human, UniProt Q8NBP7 31-692).
T4 construct: also called hPCSK9; huPCSK9
As to the kind of experiment: SPR, dual injection on immobilized albumin.

In the next experiment the target is T5, human serum albumin (human, UniProt P02768 25-609).
T5 construct: immobilized on chips or coated on plates elsewhere; also called HSA; HuSA
Description: SPR, albumin immobilized, acetate pH 7.4.

For experiment [2], the target named is T3, rhesus serum albumin. As to the kind of experiment: SPR, albumin immobilized, acetate pH 7.4.
The target of experiment [3] is T6, mouse serum albumin (mouse, UniProt P07724 25-608).
T6 construct: also called MSA; MuSA
T6 sequence (P07724 25-608 limits assumed): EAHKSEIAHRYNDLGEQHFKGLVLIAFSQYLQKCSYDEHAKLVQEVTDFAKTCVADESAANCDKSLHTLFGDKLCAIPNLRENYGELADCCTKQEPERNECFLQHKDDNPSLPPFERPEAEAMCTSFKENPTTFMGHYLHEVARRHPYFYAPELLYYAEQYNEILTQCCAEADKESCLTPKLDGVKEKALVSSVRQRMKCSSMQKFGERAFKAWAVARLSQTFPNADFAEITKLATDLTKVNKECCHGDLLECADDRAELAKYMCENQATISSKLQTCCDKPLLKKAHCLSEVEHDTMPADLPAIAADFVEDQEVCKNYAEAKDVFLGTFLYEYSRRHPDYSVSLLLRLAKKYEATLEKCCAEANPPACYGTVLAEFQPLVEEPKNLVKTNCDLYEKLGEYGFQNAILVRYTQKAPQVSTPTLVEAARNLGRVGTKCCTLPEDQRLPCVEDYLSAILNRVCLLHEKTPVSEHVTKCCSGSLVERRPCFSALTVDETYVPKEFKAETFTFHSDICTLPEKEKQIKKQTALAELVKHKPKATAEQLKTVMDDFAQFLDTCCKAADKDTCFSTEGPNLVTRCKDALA
Description: SPR, albumin immobilized, acetate pH 7.4.

In experiment [4] the target is T6, mouse serum albumin. As to the kind of experiment: SPR, albumin immobilized, acetate pH 7.4; acetate pH 7.4, MuSA.

T3 sequence (Q28522 17-600 limits assumed): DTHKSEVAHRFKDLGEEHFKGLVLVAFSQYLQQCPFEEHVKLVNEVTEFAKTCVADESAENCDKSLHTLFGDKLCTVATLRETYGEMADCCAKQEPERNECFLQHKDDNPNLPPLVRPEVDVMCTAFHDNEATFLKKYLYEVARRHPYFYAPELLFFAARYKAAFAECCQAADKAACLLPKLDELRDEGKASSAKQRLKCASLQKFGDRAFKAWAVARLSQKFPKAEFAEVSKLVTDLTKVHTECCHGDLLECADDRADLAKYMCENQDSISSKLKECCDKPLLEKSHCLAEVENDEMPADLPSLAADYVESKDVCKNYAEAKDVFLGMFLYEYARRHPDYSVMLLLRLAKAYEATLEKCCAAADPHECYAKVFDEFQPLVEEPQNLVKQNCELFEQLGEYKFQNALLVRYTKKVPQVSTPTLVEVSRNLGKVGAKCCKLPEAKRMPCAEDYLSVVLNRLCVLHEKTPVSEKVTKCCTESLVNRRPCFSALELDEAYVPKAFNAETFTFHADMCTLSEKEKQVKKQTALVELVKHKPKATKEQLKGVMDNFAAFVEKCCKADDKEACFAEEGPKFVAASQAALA

B1: PKE2 Adnectin 2629_E06 (designed binder)
chain: MGVSDVPRDLEVVAATPTSLLISWDAPAVTVRYYRITYGREVQKYSDLGPLYIYQEFTVPGSKSTATISGLKPGVDYTITVYAVTGSGESPASSKPISINYRTEIDKPSQHHHHHH
notes: 10Fn3 domain with modified CD loop; the entry includes the His6 tail; also called ADX_2629_E06
For the molecule B1, the binding result with domain I of HSA, with domain III of HSA and with human PCSK9 was “no binding” each time. The dissociation constant (Kd) (commonly a measure of binding affinity in units of concentration) with rhesus serum albumin [1] was found to be 11.4 nM; in the experiment with human serum albumin, 9.6 nM; in the experiment with rhesus serum albumin [2] it was 10.4 nM; with mouse serum albumin [3], 11.2 nM. The off-rate constant (koff) (commonly a measure of how fast the partners let go of each other) in the experiment with rhesus serum albumin [1] amounted to 0.000267 s⁻¹; with human serum albumin, 0.000243 s⁻¹; with rhesus serum albumin [2] it was 0.000297 s⁻¹; in the experiment with mouse serum albumin [3], 0.000503 s⁻¹. Moreover, the on-rate (kon) (usually the rate constant with which the complex forms) in the experiment with rhesus serum albumin [1] is 23500 M⁻¹ s⁻¹; with human serum albumin, 25400 M⁻¹ s⁻¹; with rhesus serum albumin [2], 28600 M⁻¹ s⁻¹; in the experiment with mouse serum albumin [4], approximately 76800 M⁻¹ s⁻¹.
